Measured values published in US11739132B2, “Separation moieties and methods of use thereof” (Werewolf Therapeutics, Inc., priority 2019, dated 2023).
Entries after “also recorded” stand apart in the source; their conditions may differ. Values belong to the substance of their own block, whether it stands above or below them. No end group written: not given here.

Experiments:
[1] = target: T1, Factor Xa (Homo sapiens, UniProt P00742); test: 30-mer library counter-screening MSP-MS, Factor Xa; format: biochemical
T1 construct: purchased R&D Systems (Bio-techne) 1063-SE-010
T1 sequence (P00742 235-488 limits assumed): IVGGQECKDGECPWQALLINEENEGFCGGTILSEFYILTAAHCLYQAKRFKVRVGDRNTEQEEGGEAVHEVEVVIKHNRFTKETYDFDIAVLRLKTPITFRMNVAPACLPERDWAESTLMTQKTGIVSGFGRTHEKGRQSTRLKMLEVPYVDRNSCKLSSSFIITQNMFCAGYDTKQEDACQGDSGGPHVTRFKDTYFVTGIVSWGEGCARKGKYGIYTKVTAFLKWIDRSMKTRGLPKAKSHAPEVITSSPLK
T1 sequence (P00742 41-179 partner limits assumed): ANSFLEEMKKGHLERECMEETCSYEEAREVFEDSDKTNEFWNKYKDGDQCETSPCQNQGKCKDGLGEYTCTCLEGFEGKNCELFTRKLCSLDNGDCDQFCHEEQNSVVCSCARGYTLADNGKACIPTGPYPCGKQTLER
Description: (§1) Protease specificity screening was performed using Multiplexed Substrate Profiling by Mass Spectrometry (MSP-MS), the method described in, e.g. O'Donoghue A. J. et al., Nat Methods., 2012; 9(11): 1095-1100. This method employs a physico-chemically diverse peptide library as substrates for proteases, and reactions are monitored over time with mass spectrometric detection of cleaved products. The resulting cleavages are assessed for specific cleavage in the enzyme-treated sample by comparison with results from a no-enzyme control incubation.
(§2) Enzymes were activated and assayed following the manufacturer's recommendations.
Factor Xa was assayed at 4.7 nM enzyme, at 37° C. in the manufacturer recommended buffer: 50 mM TRIS, 10 mM CaCl2, 150 mM NaCl, pH 7.5.
(§3) Counter-screening was performed against the enzymes Thrombin, Factor Xa and Hepsin using this library as well, and for calibration of activity, a positive-control peptide bearing favorable motifs for these enzymes was also designed (ALU30-19).
Catalytic efficiency (kcat/KM) estimations were used to rank the top cleaved substrates in the MSP-MS reaction. Peptides were quantified by mass spectrometric label-free quantitation from the MS1 precursor ion peak areas for each peptide. Enzyme progress curves were modeled from six-time point measurements in GraphPad Prism. […]

[2] = target: T2, Hepsin (Homo sapiens, UniProt P05981); test: 30-mer library counter-screening MSP-MS, Hepsin; format: biochemical
T2 construct: purchased R&D Systems (Bio-techne) 4776-SE
T2 sequence (P05981 163-417 limits assumed): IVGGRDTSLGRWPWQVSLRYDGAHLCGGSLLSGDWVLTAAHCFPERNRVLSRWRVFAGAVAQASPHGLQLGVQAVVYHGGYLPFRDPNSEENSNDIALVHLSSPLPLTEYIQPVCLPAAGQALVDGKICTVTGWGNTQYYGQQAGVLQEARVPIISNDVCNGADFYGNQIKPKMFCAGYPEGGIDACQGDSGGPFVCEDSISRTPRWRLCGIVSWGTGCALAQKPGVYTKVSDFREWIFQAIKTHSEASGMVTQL
T2 sequence (P05981 1-162 partner limits assumed): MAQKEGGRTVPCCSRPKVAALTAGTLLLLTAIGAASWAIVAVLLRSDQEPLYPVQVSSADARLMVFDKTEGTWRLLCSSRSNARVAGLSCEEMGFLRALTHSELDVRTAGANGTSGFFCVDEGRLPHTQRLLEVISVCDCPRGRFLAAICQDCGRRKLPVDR
Description: as §1, §2
Hepsin was pre-activated overnight at 37° C. in the manufacturer recommended buffer: 100 mM TRIS, 10 mM CaCl2, 150 mM NaCl, 0.05% Brij-35, pH 8.0. Activity was measured with 2.4 or 24 nM enzyme in the buffer: 50 mM TRIS HCl at pH 7.4.
as §3
(§4) Catalytic efficiency (kcat/KM) estimations were used to rank the top cleaved substrates in the MSP-MS reaction. Peptides were quantified by mass spectrometric label-free quantitation from the MS1 precursor ion peak areas for each peptide. Enzyme progress curves were modeled from six-time point measurements in GraphPad Prism. Data were fitted using non-linear least squares fitting to the first order kinetics equation:
(§5) [formula] where Y=percent product formation or substrate consumption, and t=time. The observed rate is a function of the enzyme concentration [E0], and an observed catalytic efficiency (kcat/KM) in units M^−1s^−1
(§6) Counter-screening with Thrombin, Factor Xa and Hepsin was also performed following the same analysis. The library peptide Alu30-19 was designed to include authentic sites for each enzyme, for comparison of overall cleavage efficiency as well as cleavage site specificity within each motif. The substrate designed for Factor Xa has the motif FNPR|TFGS (SEQ ID NO: 248), derived from the Factor Xa cleavage site in Thrombin. The substrate motif for Thrombin was FPR|, a common tool substrate motif. The substrate motif for hepsin was RKRR|GSRG (SEQ ID NO: 249) from filaggrin.

[3] = target: T3, MMP9 (Homo sapiens, UniProt P14780); test: 30-mer tandem linker library MSP-MS, MMP9; format: biochemical
T3 construct: purchased R&D Systems (Bio-techne) 911-MP-010
T3 sequence (P14780 107-707 limits assumed): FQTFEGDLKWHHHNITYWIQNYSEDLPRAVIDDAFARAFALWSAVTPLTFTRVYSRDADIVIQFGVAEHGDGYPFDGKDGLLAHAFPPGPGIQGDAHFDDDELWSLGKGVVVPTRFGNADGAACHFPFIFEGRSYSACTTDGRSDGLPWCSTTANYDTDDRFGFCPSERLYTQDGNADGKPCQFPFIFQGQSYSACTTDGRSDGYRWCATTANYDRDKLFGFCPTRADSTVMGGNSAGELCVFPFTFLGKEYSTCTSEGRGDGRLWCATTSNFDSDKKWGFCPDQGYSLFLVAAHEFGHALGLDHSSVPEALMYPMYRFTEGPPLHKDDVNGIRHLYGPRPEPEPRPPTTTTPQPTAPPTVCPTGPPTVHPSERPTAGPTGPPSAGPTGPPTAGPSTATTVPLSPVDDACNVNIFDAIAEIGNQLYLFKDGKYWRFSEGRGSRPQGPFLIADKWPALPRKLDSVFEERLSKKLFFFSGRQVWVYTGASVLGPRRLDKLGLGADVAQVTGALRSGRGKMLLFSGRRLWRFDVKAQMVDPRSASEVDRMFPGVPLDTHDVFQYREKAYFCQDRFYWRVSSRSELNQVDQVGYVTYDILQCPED
Description: as §1, §2
MMP9 was activated by incubation with 1 mM p-amino phenyl mercuric acetate (prepared from a stock at 100 mM in DMSO) for 24h at 37° C. in activation buffer: 50 mM TRIS HCl (pH 7.5), 10 mM CaCl2, 150 mM NaCl, 0.05% Brij35. The final enzyme concentration used for fluorescence assays was 2.5 nM.
To analyze the catalytic efficiency of candidate tandem linker designs, a tailored library approach using MSP-MS was applied. […] For quantitative comparisons, kinetic analysis was performed over a time course, and results are reported either as a catalytic efficiency kcat/KM for well-behaved first-order kinetics, or as observed rates as kobs for more complex kinetic behavior. […]

[4] = target: T4, FAPα (Homo sapiens, UniProt Q12884); test: 30-mer tandem linker library MSP-MS, FAPα; format: biochemical
T4 construct: purchased R&D Systems (Bio-techne) 930-ADB-010
T4 sequence (Q12884 1-760): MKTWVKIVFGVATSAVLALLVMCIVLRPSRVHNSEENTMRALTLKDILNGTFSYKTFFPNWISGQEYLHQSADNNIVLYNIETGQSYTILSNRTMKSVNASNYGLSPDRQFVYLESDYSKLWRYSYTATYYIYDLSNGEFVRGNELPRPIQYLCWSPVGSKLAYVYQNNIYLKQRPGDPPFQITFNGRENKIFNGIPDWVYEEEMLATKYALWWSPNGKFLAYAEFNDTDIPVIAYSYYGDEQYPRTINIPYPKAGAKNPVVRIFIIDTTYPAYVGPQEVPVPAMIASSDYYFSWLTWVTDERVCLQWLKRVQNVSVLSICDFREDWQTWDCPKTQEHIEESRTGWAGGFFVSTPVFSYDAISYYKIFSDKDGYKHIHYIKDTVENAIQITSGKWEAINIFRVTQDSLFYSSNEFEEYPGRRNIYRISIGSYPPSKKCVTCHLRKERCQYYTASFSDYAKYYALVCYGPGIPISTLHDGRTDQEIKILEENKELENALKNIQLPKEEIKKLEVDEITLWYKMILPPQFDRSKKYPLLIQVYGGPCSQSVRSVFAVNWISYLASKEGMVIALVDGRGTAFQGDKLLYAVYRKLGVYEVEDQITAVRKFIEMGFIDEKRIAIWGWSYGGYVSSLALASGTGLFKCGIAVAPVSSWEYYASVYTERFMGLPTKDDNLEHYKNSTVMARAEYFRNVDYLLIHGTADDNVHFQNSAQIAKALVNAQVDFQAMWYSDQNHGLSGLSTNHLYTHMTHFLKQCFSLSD
Description: as §1, §2
FAPα activity was tested with fluorescence detection using a generic Z-GP-AMC substrate. For FRET assays, the final enzyme concentration was 5 nM and the buffer was 50 mM TRIS HCl, 1 M NaCl, 1 mg/mL BSA, pH 7.5.
(§7) To analyze the catalytic efficiency of candidate tandem linker designs, a tailored library approach using MSP-MS was applied. For the tailored library, a set of nineteen synthetic peptides, 30 amino acids in length (30-mers), were designed to test whether sequence context affects the efficiency of cleavage. Peptides were assayed in a multiplex format together as a substrate library with individual recombinant enzymes, using MSP-MS. For quantitative comparisons, kinetic analysis was performed over a time course, and results are reported either as a catalytic efficiency kcat/KM for well-behaved first-order kinetics, or as observed rates as kobs for more complex kinetic behavior.
as §4, §5

[5] = target: T5, Thrombin (Homo sapiens, UniProt P00734); test: 30-mer library counter-screening MSP-MS, Thrombin; format: biochemical
T5 construct: purchased R&D Systems (Bio-techne) 2196-SE-200
Description: as §1, §2
Thrombin was activated following the manufacturer's recommended conditions by pre-incubation with the enzyme with thermolysin for 15 min, and then the thermolysin was quenched with 1,10 phenanthroline treatment. Activated thrombin was assayed at 1.2 nM in activation buffer: 50 mM TRIS HCl, 10 mM CaCl2, 150 mM NaCl, 0.05% (w/v) Brij-35, pH 7.5.
as §3, §4, §5, §6

[6] = tested on: full set of five targeted enzymes; thrombin, Factor Xa, and hepsin; test: 30-mer tandem linker design: comparison of cleavage efficiencies across enzymes; format: biochemical, human
Excerpt: To generate the most efficient tandem linker, the cleavage efficiencies for each of the targeted enzymes toward the 30-mer library peptides can be compared (FIG. 64).
Replacement of the ADAM17_2 motif with ADAM17_i may also enhance activity toward FAP-alpha and CTSL1, even if ADAM17 activity enhancement is minor, and hepsin susceptibility would be predicted to be reduced.

[7] = target: T6, CTSL1 (Homo sapiens, UniProt P07711); test: In vitro FRET kinetics with CTSL1; format: biochemical
T6 sequence (P07711 114-333): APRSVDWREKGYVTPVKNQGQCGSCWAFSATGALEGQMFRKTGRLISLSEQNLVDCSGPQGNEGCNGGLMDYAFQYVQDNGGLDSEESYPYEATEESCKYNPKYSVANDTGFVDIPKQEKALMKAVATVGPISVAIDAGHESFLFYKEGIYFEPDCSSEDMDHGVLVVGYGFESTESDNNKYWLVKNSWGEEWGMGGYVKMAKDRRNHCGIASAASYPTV
Description: as §2
(§8) For CTSL1, enzyme was activated by pre-incubation in assay buffer (50 mM MES, 5 mM DTT, 1 mM EDTA, pH=6) for 15 min. MSP-MS reactions were then started with the mixing of enzyme and substrate, at final CTSL1 concentration of 0.04 ng/μl (0.77 nM), and peptide substrate concentration at 500 nM.
Additional in vitro kinetic experiments were performed to characterize a new candidate motif for CTSL1 enzyme; the CTSL1_2 motif has the sequence […] (SEQ ID NO: 199). […] Yet, initial experiments with the CTSL1_2 FRET substrate were inconclusive, possibly due to artifacts in the FRET assay; therefore, a new FRET peptide construct was designed with the 9-mer sequence […] (SEQ ID NO: 236).
All of the FRET substrates used in these studies have a methoxycoumarin (Mca) fluorophore and dinitrophenyl-lysyl (Dnp) quencher pair at the N- and C-termini of the sequences, respectively.

[8] = target: T7, Cathepsin K (CTSK) (Homo sapiens, UniProt P43235); test: Counter-screening of CTSL1 FRET substrates with Cathepsin K; format: biochemical; conditions: specific activity
T7 sequence (P43235 115-329): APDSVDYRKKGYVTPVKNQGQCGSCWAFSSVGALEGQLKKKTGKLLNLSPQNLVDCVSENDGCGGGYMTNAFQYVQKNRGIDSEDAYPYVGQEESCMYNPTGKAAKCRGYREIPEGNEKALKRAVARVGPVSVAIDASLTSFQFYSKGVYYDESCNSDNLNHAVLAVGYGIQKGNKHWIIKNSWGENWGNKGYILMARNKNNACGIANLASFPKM
Description: Counter-screening of CTSL1_1 and CTSL1_2 was performed with the enzyme Cathepsin K (CTSK). […] For comparison, the specific activity for reference substrates such as Z-LR-AMC and Z-FR-AMC is 15,000-25,000 pmol/min/μg, with the average value indicated by a dashed line in FIG. 47.

[9] = target: T6, CTSL1; test: 30-mer tandem linker library MSP-MS, CTSL1; format: biochemical
Description: as §1, §2, §8
This hypothesis was tested in the context of the hybrid linker design experiment. Shown in FIG. 46 are the results of cleavage of two matched 30-mer peptides with the following sequences:
as §7, §4, §5

[10] = tested on: activated T cells relative to NK cells; conditions: cited from earlier work
[11] = cited from earlier work
[12] = matched 30-mer peptides SEQ ID NO: 207 (CTSL1_1) and 219 (CTSL1_2)

- Relative efficiency of 30-mer peptide cleavage by Factor Xa [1]: significant cleavage
Substance: KGGALFKSSFPGGPAGIGPLAQKLKSSGGS [Alu30-5]

- Time to complete degradation by Factor Xa [1]: < 5 min
- Time to cleavage at all three motifs by hepsin [2]: ≤ 15 min
- Apparent catalytic efficiency, hepsin ([2]; order of magnitude): ~10^5 M^−1s^−1
Substance: SGGFPRSGGSFNPRTFGSKRKRRGSRGGGG [Alu30-19, reference compound]

- Relative efficiency of 30-mer substrate degradation/cleavage by MMP9 [3]: more efficient than the Alu30-1 peptide
- Relative efficiency of 30-mer peptide degradation by FAPα [4]: efficiently cleaved
- Relative efficiency of 30-mer peptide cleavage by thrombin [5]: less susceptible to thrombin
Substance: RGSGGGPAGLYAQGSGGGPAGLYAQGGSGK [Alu30-2]

Substance: SGPLAQKLKSSGPAGLYAQALFKSSFPGSK [Alu30-16]
- Activity toward the full set of five targeted enzymes [6]: generally high activity
- Susceptibility to thrombin, Factor Xa, and hepsin [6]: lowest susceptibility

Substance: ALFFSSPP (also: FRET fluorophore and quencher) [CTSL1_2]
- Cleavage of 8-mer FRET substrate by CTSL1 ([7]; 8-mer FRET peptide, Mca/Dnp pair): not cleaved
- Cleavage of 9-mer FRET substrate by CTSL1 ([7]; 9-mer sequence ALFFSSPPS (SEQ ID NO: 236)): comparable catalytic efficiency to the CTSL1_1 motif; also recorded: cleaved as a 9-mer FRET peptide
- Cleavage by CTSK, lower level than the CTSL1_1 substrate [8]: 15 ×
- Relative efficiency of 30-mer peptide cleavage by CTSL1 [9]: rapidly cleaved
- +1 site product formation by CTSL1 [9, 12]: more rapidly formed
- −1 site product formation by CTSL1 [9, 12]: did not
- Relative efficiency of cleavage by hepsin [2]: cleaved at a much slower rate than CTSL1_1

Substance: Bay 50-4798: IL-2 variant IL2/N88R, clinically tested as a low-toxicity version of IL-2
- Selectivity of stimulated proliferation [10]: selectively stimulate the proliferation of activated T cells relative to NK cells
- Levels of CD4+CD25+ T cells in clinical trials ([11]; cancer patients and HIV patients): increased the levels of CD4+CD25+ T cells
- Safety and tolerability in clinical trials ([11]; human, in vivo): considerably safer and more tolerable than aldesleukin
